Results taken from patent publication US20060240110A1 (published 2006).

Columns and labels:
[1] = target: T1, streptavidin (SA chip surface) (UniProt P22629 37-163, limits assumed); assay: SPR, Biacore 3000, streptavidin-coated chip
T1 construct: Commercial chip coating; the construct is not described; also called streptavidin-coated chip

[2] = target: the molecule itself; assay: circular dichroism, concentration dependence of MRE222 in PBS fitted for dimerization (coiled-coil self-association)

T1 sequence (P22629 37-163 limits assumed): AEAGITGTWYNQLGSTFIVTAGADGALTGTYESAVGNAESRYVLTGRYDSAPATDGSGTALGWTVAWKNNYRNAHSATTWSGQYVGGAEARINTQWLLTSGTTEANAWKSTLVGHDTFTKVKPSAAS

B1: PF4ZIP (peptide)
peptide: CGGRMKQLEDKVKKLLKKNYHLENEVARLKKLVG
notes: The entry is the single chain; the Kd is for its self-association into a coiled-coil dimer; also called PF4ZIP peptide
For B1, the binding result [1] was “no binding” and the Kd [2] was 3.48 µM.
